Here are results for 20 molecules from paper PMC4692527.

To fix the notation:
B1: synthetic FvTox1-interacting fusion peptide 7 in pB42AD (no flanking cysteines) (designed binder)
chain: GSGGGGSGGGGSGGGGSSYLPETIYEYRLGGGGSELGGGGSGGGGSGGGGSVENKTRYHDREVGGGGSLEGGGGSGGGGSGGGGSHEGAWHNYARSVGGGGS
B2: synthetic FvTox1-interacting fusion peptide 9 in pB42AD (no flanking cysteines) (designed binder)
chain: GGGGSGGGGSGGGGSSYLPETIYEYRLGGGGSELGGGGSGGGGSGGGGSVENKTRYHDREVGGGGSLEGGGGSGGGGSGGGGSHEGAWHNYARSVGGGGSGTGGGGSGGGGSGGGGSSNGRVADGGGGS
B3: synthetic FvTox1-interacting fusion peptide 6 in pB42AD (no flanking cysteines) (designed binder)
chain: GGGSGGGGSGGGGSHEGAWHNYARSVGGGGSELGGGGSGGGGSGGGGSSNGRVADGGGGS
B4: synthetic FvTox1-interacting fusion peptide 5 in pB42AD (no flanking cysteines) (designed binder)
chain: GGGGSGGGGSGGGGSSYLPETIYEYRLGGGGSELGGGGSGGGGSGGGGSVENKTRYHDREVGGGGS
B5: synthetic FvTox1-interacting fusion peptide 8 in pB42AD (no flanking cysteines) (designed binder)
chain: GGGGSGGGGSGGGGSSYLPETIYEYRLGGGGSELGGGGSGGGGSGGGGSVENKTRYHDREVGGGGSLEGGGGSGGGGSGGGGSSNGRVADGGGGS
B6: synthetic FvTox1-interacting fusion peptide 7 (PEP1-PEP2-PEP3; His-tagged, expressed in E. coli) (designed binder)
chain: GSGGGGSGGGGSGGGGSSYLPETIYEYRLGGGGSELGGGGSGGGGSGGGGSVENKTRYHDREVGGGGSLEGGGGSGGGGSGGGGSHEGAWHNYARSVGGGGS
B7: synthetic FvTox1-interacting fusion peptide 9 (PEP1-PEP2-PEP3-PEP4; His-tagged, expressed in E. coli) (designed binder)
chain: GGGGSGGGGSGGGGSSYLPETIYEYRLGGGGSELGGGGSGGGGSGGGGSVENKTRYHDREVGGGGSLEGGGGSGGGGSGGGGSHEGAWHNYARSVGGGGSGTGGGGSGGGGSGGGGSSNGRVADGGGGS
B8: synthetic FvTox1-interacting fusion peptide 6 (PEP3-PEP4; His-tagged, expressed in E. coli) (designed binder)
chain: GGGSGGGGSGGGGSHEGAWHNYARSVGGGGSELGGGGSGGGGSGGGGSSNGRVADGGGGS
B9: synthetic FvTox1-interacting fusion peptide 5 (PEP1-PEP2; His-tagged, expressed in E. coli) (designed binder)
chain: GGGGSGGGGSGGGGSSYLPETIYEYRLGGGGSELGGGGSGGGGSGGGGSVENKTRYHDREVGGGGS
B10: synthetic FvTox1-interacting fusion peptide 8 (PEP1-PEP2-PEP4; His-tagged, expressed in E. coli) (designed binder)
chain: GGGGSGGGGSGGGGSSYLPETIYEYRLGGGGSELGGGGSGGGGSGGGGSVENKTRYHDREVGGGGSLEGGGGSGGGGSGGGGSSNGRVADGGGGS

The target of the first test is FvTox1 in the pLexA vector (LexA fusion) (Fusarium virguliforme). In words: two-hybrid; LexA two-hybrid system, yeast EGY48 [pSH18-34]; FvTox1 in pLexA, peptides in pB42AD; reporters LacZ and LEU2; quantitative β-galactosidase activity (Miller units), three biological replications.
In the case of “soybean GmTRX3, a thioredoxin protein (natural protein)”, the β-galactosidase activity came out at 9.64 Miller units.
Same read-out and setting: the value for “soybean GmGD1, a glycine cleavage protein (natural protein)” was 5.79 Miller units; that for B1 was 6.12 Miller units.
Same read-out and setting: for GGGGSGGGGSGGGGSSYLPETIYEYRLGGGGS [synthetic FvTox1-interacting peptide 1 in pB42AD (no flanking cysteines)] the value was 6.59 Miller units.
Still for that read-out and setting: for GGGGSGGGGSGGGGSHEGAWHNYARSVGGGGS [synthetic FvTox1-interacting peptide 3 in pB42AD (no flanking cysteines)] the value was 5.87 Miller units.
With GGGGSGGGGSGGGGSSNGRVADGGGGS [synthetic FvTox1-interacting peptide 4 in pB42AD (no flanking cysteines)], the β-galactosidase activity was 6.45 Miller units.
B2 came in with a β-galactosidase activity of 5.64 Miller units.
Same read-out and setting: the value for B3 was 5.32 Miller units.
Consider GGGGSGGGGSGGGGSVENKTRYHDREVGGGGS [synthetic FvTox1-interacting peptide 2 in pB42AD (no flanking cysteines)], for which the β-galactosidase activity worked out at 5.88 Miller units.
The same measure, in the same setting: the value for B4 was 3.11 Miller units.
Consider B5, for which the β-galactosidase activity amounted to 3.35 Miller units.

In another test the target is GST-tagged FvTox1 (Fusarium virguliforme). In words: pull-down; purified His-tagged peptides/fusion proteins mixed with GST-tagged FvTox1, pulled down with glutathione resin; western blot with anti-His antibody; relative percent pulled down, two independent experiments. On the technique in general: In western blotting, separated proteins are transferred to a membrane and probed.
As for B6, the percent peptide pulled down by FvTox1 (relative binding strength) is 38.5 percent.
As for GGGGSGGGGSGGGGSSYLPETIYEYRLGGGGS [synthetic FvTox1-interacting peptide 1 (His-tagged, expressed in E. coli)], the percent peptide pulled down by FvTox1 (relative binding strength) stood at 3.9 percent.
Still for that read-out and setting: the value for GGGGSGGGGSGGGGSHEGAWHNYARSVGGGGS [synthetic FvTox1-interacting peptide 3 (His-tagged, expressed in E. coli)] was 2.7 percent.
Same read-out and setting: for GGGGSGGGGSGGGGSSNGRVADGGGGS [synthetic FvTox1-interacting peptide 4 (His-tagged, expressed in E. coli)] the value was 2.3 percent; for B7, 47 percent; for B8, 8.8 percent.
On the same count and under the same terms, the value for GGGGSGGGGSGGGGSVENKTRYHDREVGGGGS [synthetic FvTox1-interacting peptide 2 (His-tagged, expressed in E. coli)] was 5.5 percent; that for B9 was 31.8 percent; that for B10 was 26 percent.
